Reference: EP1688435A1 (Boehringer Ingelheim International GmbH, dated 2006)

Assays:
Test in all cases: immunoprecipitation with myc antibodies, SDS-PAGE and silver staining (Figure 3B)
[1] = molecular target: human cohesin subunit Smc3 (human, UniProt Q9UQE7 1-1217)
[2] = molecular target: T1, human cohesin subunit SA2 (cell-cycle state not stated) (human, UniProt Q8N3U4 1-1231)
T1 construct: Endogenous protein from HeLa cells
T1 sequence: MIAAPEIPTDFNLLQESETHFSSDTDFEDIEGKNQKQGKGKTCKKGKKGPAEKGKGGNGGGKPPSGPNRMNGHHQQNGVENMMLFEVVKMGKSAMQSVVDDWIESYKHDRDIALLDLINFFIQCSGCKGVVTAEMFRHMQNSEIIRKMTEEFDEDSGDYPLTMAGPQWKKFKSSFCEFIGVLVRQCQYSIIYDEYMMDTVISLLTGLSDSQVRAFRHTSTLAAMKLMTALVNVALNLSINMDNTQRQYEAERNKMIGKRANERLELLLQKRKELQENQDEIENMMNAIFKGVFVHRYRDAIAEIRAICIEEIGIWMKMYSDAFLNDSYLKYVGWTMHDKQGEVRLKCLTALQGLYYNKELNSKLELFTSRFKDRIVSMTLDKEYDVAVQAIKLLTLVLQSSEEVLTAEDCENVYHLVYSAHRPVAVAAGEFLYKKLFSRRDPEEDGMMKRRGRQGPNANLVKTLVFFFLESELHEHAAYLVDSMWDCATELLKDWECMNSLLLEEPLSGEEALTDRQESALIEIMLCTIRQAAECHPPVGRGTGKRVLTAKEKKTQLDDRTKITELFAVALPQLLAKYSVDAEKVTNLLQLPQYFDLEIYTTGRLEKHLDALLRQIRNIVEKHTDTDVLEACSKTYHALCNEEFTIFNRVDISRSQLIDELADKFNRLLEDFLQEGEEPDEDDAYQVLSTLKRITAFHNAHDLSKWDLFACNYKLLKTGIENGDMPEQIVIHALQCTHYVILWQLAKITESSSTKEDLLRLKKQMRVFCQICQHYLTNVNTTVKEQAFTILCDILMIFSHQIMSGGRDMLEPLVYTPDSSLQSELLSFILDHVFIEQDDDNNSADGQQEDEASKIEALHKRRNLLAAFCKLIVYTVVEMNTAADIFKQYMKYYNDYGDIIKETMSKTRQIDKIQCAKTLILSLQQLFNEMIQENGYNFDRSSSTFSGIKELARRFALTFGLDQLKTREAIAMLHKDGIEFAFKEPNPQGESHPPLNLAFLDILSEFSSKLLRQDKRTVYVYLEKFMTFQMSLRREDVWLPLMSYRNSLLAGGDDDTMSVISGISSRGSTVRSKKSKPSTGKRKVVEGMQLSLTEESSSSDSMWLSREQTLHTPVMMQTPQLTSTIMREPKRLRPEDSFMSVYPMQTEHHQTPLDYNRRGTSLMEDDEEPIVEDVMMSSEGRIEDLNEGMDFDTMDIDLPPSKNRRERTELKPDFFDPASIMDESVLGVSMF

[3] = molecular target: T2, human cohesin subunit SA1 (cell-cycle state not stated) (human, UniProt Q8WVM7 1-1258)
T2 sequence (looked up): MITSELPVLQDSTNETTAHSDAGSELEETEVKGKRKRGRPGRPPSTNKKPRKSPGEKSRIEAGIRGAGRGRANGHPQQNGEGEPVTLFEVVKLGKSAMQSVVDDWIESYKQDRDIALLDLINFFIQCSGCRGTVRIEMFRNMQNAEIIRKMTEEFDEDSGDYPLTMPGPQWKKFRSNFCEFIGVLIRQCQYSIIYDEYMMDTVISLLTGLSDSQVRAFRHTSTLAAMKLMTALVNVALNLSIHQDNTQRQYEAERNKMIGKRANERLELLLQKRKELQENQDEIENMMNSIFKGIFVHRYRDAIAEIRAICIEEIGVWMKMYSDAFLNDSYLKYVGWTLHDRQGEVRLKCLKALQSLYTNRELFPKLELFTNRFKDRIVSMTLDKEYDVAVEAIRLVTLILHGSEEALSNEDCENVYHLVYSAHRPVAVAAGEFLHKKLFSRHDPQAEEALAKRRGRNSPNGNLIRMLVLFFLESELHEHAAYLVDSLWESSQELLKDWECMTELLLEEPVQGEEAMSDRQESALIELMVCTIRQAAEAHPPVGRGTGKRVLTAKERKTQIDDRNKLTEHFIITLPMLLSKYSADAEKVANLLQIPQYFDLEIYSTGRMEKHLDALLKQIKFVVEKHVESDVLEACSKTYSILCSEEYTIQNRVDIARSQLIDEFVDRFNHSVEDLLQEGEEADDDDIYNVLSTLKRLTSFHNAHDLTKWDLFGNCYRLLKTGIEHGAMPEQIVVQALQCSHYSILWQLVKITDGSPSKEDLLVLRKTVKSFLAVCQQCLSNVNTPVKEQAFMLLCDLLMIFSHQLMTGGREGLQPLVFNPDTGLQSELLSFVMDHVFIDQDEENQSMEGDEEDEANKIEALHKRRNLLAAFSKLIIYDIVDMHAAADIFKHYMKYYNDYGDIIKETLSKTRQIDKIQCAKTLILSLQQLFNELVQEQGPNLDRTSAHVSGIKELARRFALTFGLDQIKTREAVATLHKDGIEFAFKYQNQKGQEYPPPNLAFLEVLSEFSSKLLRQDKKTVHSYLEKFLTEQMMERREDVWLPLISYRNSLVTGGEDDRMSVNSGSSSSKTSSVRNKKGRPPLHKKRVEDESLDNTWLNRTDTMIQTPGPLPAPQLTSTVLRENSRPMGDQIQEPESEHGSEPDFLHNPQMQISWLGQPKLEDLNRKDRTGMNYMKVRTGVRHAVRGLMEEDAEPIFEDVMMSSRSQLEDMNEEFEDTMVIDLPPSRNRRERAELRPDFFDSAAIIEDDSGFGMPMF

[4] = molecular target: T3, human cohesin subunit Smc1 (human, UniProt Q14683 1-1233)
T3 construct: also called Smcl
T3 sequence (looked up): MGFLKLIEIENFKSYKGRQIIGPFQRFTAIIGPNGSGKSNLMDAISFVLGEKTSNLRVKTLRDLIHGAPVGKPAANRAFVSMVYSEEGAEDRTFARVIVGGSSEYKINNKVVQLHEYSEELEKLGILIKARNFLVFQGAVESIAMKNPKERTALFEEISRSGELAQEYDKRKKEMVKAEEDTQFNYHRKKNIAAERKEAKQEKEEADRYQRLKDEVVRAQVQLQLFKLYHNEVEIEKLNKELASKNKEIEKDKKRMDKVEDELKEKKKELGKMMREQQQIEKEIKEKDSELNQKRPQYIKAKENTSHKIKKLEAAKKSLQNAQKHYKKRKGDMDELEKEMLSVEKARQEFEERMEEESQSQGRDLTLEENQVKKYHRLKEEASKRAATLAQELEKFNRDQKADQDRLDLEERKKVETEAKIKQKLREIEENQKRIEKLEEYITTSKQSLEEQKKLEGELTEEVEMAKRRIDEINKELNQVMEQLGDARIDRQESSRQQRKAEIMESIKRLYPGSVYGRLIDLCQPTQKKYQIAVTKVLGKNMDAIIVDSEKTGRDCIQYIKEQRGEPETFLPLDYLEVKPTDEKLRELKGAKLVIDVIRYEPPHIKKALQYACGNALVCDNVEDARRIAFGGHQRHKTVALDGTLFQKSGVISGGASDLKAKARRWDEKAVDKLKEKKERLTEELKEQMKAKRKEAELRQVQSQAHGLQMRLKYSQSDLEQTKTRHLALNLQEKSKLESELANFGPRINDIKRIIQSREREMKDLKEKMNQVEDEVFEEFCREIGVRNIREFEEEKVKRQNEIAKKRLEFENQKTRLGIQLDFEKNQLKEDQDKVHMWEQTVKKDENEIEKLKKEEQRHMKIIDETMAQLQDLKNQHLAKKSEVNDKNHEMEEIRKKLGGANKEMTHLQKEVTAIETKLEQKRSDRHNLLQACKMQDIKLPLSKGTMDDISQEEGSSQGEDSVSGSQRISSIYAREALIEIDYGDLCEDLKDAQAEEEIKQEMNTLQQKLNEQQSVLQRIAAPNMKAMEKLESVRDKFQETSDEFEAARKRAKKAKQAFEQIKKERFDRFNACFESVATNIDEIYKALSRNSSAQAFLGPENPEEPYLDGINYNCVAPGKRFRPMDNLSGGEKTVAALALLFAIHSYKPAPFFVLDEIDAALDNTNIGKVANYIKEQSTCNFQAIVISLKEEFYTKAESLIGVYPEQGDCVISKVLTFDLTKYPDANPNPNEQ

Measured: binding result

Chain of human cohesin subunit Smc3 (Q9UQE7 whole entry): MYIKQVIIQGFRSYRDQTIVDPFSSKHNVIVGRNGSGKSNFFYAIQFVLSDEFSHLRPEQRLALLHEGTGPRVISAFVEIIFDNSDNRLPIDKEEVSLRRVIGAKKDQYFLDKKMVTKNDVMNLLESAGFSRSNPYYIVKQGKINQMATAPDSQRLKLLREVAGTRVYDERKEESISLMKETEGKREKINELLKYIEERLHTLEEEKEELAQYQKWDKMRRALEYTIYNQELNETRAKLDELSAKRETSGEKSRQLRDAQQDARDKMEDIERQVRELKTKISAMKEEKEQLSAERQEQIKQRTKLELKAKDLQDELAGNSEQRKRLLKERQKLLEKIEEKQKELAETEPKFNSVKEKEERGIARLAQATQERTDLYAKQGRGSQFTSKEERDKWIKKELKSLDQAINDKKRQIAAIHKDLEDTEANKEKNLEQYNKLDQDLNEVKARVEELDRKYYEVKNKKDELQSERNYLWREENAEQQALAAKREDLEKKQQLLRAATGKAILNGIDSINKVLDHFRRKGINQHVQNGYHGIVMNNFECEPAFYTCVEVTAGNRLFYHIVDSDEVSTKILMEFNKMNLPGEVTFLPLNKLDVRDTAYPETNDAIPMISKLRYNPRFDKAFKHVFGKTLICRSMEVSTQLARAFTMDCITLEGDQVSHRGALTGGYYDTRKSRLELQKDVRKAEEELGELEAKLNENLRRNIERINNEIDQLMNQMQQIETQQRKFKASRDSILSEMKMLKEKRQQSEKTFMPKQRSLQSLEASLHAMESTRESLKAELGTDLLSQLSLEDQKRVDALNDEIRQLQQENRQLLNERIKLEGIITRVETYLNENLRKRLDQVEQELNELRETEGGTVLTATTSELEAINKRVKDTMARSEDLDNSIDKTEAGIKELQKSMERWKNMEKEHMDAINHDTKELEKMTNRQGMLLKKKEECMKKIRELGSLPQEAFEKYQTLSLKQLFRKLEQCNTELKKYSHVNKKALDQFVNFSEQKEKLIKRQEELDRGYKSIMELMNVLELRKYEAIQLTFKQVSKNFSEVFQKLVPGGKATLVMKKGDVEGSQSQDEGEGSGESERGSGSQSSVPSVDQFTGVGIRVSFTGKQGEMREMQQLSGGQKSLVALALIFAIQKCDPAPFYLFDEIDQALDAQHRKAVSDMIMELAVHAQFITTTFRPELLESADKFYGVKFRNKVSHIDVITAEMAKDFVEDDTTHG

B1: Scc1-S454A-myc expressed in HeLa tet-on cells (cell-cycle state not stated) (other)
chain: MFYAHFVLSKRGPLAKIWLAAHWDKKLTKAHVFECNLESSVESIISPKVKMALRTSGHLLLGVVRIYHRKAKYLLADCNEAFIKIKMAFRPGVVDLPEENREAAYNAITLPEEFHDFDQPLPDLDDIDVAQQFSLNQSRVEEITMREEVGNISILQENDFGDFGMDDREIMREGSAFEDDDMLVSTTTSNLLLESEQSTSNLNEKINHLEYEDQYKDDNFGEGNDGGILDDKLISNNDGGIFDDPPALSEAGVMLPEQPAHDDMDEDDNVSMGGPDSPDSVDPVEPMPTMTDQTTLVPNEEEAFALEPIDITVKETKAKRKRKLIVDSVKELDSKTIRAQLSDYSDIVTTLDLAPPTKKLMMWKETGGVEKLFSLPAQPLWNNRLLKLFTRCLTPLVPEDLRKRRKGGEADNLDEFLKEFENPEVPREDQQQQHQQRDVIDEPIIEEPSRLQEAVMEASRTNIDESAMPPPPPQGVKRKAGQIDPEPVMPPQQVEQMEIPPVELPPEEPPNICQLIPELELLPEKEKEKEKEKEDDEEEEDEDASGGDQDQEERRWNKRTQQMLHGLQRALAKTGAESISLLELCRNTNRKQAAAKFYSFLVLKKQQAIELTQEEPYSDIIATPGPRFHII
notes: not shown: 9xmyc tag at the C-terminus
binds: [1] | [2] | [3] | [4]
